Tests used:
[1] = system: T1, human GST-SAPK4
T1 sequence: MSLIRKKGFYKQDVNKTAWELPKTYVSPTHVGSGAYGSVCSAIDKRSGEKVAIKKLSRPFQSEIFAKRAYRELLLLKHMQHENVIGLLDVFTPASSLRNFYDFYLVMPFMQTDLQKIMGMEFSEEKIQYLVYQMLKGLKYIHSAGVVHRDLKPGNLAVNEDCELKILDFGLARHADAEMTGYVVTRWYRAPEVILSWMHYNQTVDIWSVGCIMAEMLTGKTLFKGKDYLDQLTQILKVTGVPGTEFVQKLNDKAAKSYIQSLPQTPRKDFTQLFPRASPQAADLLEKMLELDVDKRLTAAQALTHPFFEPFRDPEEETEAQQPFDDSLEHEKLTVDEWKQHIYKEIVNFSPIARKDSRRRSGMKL

[2] = target: SAPK3 (untagged, transfected) (rat) (UniProt Q63538); assay: cell-based or functional assay
Chain of SAPK3 (untagged, transfected) (rat) (Q63538 whole entry): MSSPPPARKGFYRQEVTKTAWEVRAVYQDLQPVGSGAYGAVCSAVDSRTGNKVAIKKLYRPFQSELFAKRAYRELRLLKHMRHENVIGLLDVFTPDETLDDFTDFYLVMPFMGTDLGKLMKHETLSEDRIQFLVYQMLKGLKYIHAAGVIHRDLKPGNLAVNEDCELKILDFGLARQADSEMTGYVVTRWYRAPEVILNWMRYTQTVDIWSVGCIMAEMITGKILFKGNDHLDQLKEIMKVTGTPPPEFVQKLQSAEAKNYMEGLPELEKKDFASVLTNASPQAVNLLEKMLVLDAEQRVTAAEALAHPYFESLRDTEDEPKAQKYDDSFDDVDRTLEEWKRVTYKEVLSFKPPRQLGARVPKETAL

[3] = target: c-myc epitope-tagged SAPK4 (human) (UniProt O15264); assay: cell-based or functional assay

SKK1 (MKK4) was tested, and the “phosphorylation and activation of SAPK4 in vitro” value [1] was “SAPK4 is phosphorylated and activated by SKK1 in vitro, but at a much slower rate than SAPK2a under identical conditions”.
“human SKK3 (transfected, pcDNA3.1) (from UniProt P52564 1-334) (enzyme)” showed an SAPK3 activity (MBP phosphorylation) after cotransfection into COS cells [2] of 10 fold, an activation of transfected SAPK3 by osmotic shock in cells cotransfected with SKK3 [2] of 30 fold and an SAPK4 activity (MBP phosphorylation) after co-transfection into COS cells [3] of 12.5 fold.

— patent US6617117
